Target: mthK, O27564-2

Calcium-gated potassium channel MthK (Methanobacterium thermoautotrophicum) (from UniProt O27564-1) L3D
effect of a mutation on the interaction: disrupting interaction

From IntAct's records for PubMed 18959476
